This data set concerns K562 CRISPRi cells. The data set can be described thus: Constant region variant library pooled growth screen, K562. Type of data set: cell-based, human. The procedure, abridged: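 Growth screens in K562 CRISPRi cells were harvested 4-8 days post-selection at >2000× library coverage. Each variant's phenotype was referenced to the unmodified constant region with the same targeting sequence.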

Setting [1] is: sgRNA constant region variant, activity relative to unmodified constant region cr995, mean CRISPRi activity.
[2] abbreviates: sgRNA constant region variants, activity relative to the original, un-modified constant region cr995.

B1: cr795 (nucleic acid)
guide: GTTTAAGAGCTAAGCTGGAAACAGCATAGCAAGTTTAAATAATGCTAGTCAGTTATCAACTTGAAAAAGTGTCTCCGAGTCGGAGAT
modifications: listed as DNA, chemistry not fully specified
Under setting [1], B1 yielded a Mean relative activity of 0.009911.

B2: cr376 (nucleic acid)
guide: GTTTAAGAGCTAAGCTGGAAACAGCATAGCAACTTTAAATAAGGCTAGTCCGTTATCAACTTGAAAAAGTGGCACGGAGTCCGTGCT
modifications: listed as DNA, chemistry not fully specified
Under setting [1], B2 had a Mean relative activity of 0.006963.

B3: cr518 (nucleic acid)
guide: GTTTAAGAGCTAAGCTGGAAACAGCATAGCAATTTTAAATGAGGCTAGTCCGTTATCAACTTGAAAAAGTGGCACCGAGTCGGTGCT
modifications: listed as DNA, chemistry not fully specified
B3 returned a Mean relative activity under setting [1] of 0.006889.

B4: cr807 (nucleic acid)
guide: GTTTAAGAGCTAAGCTGGAAACAGCATAGCAAGTTTAAATTAGGCTAGTCCGTTATCAACTTGAAAAAGTGGCACCGTGTCGGTGCT
modifications: listed as DNA, chemistry not fully specified
Under setting [1], B4 returned a Mean relative activity of 0.00776.

B5: cr187 (nucleic acid)
guide: GTTTAAGAGCTAAGCTGGAAACAGCATAGCAAGGTTAAATAAGGCTAGTCCGTTATCAACTTGAAAAAGTGGCACCAAGTTGGTGCT
modifications: listed as DNA, chemistry not fully specified
B5 registered a Mean relative activity under setting [1] of 0.00928.

B6: cr512 (nucleic acid)
guide: GTTTAAGAGCTAAGCTGGAAACAGCATAGCAAGGTTAAATAAGCCTAGTGCGTTATCAACTTGAAAAAGTGGCACCGAGTCGGTGCT
modifications: listed as DNA, chemistry not fully specified
Under setting [1], B6 registered a Mean relative activity of 0.007414.

B7: cr499 (nucleic acid)
guide: GTTTAAGAGCTAAGCTGGAAACAGCATAGCAACTTTAAATAAGGCTAGTCCGATATCAACTTGAAAAAGTGGCACCGAGGCGGTGCT
modifications: listed as DNA, chemistry not fully specified
With B7, under setting [1], the Mean relative activity is on record as 0.007257.

B8: cr130 (nucleic acid)
guide: GTTTAAGAGCTAAGCTGGAAACAGCATAGCATTTTTAAATAAGGCTAGTCCGTTATCAACTTGAAAAAGTGGCACCGAGTCGGTGCT
modifications: listed as DNA, chemistry not fully specified
Regarding B8, the Mean relative activity under setting [1] was 0.009507.

B9: cr160 (nucleic acid)
guide: GTTTAAGAGCTAAGCTGGAAACAGCATAGCAATCTTAAATAAGGCTAGTCCGTTATCAACTTGAAAAAGTGGCACCGAGTCGGTGCT
modifications: listed as DNA, chemistry not fully specified
In the case of B9, under setting [1], the Mean relative activity was determined as 0.007879.

B10: cr778 (nucleic acid)
guide: GTTTAAGAGCTAAGCTGGAAACAGCATAGCAAGTTTAAATAAGGCTAGTCGGTTATCAACTTGAAAAAGTGGCACCGAGTCGGTGCT
modifications: listed as DNA, chemistry not fully specified
Take B10: under setting [1], the Mean relative activity is reported as 0.0072.

B11: cr081 (nucleic acid)
guide: ATTAAAGAGCTAAGCTGGAAACAGCATAGCAAGTTTAAATAAGGCTAGTCCGTTATCAACTTGAAAAAGTGGCACCGAGTCGGTGCT
modifications: listed as DNA, chemistry not fully specified
As to B11, under setting [1], the Mean relative activity amounted to 0.009207.

B12: cr883 (nucleic acid)
guide: GTTTAAGAGCTAAGCTGGAAACAGCATAGCAAGTTTAAATAGGGCTAGTCGGTTATCAACTTGAAAAAGTGGCACCGAGTCGGTGCT
modifications: listed as DNA, chemistry not fully specified
Turning to B12, the Mean relative activity under setting [1] turned out to be 0.006975.

B13: cr054 (nucleic acid)
guide: GTTTAACCGCTAAGCTGGAAACAGCATAGCAAGTTTAAATAAGGCTAGTCCGTTATCAACTTGAAAAAGTGGCACCGAGTCGGTGCT
modifications: listed as DNA, chemistry not fully specified
In the case of B13, under setting [2], the Mean relative activity worked out at 1.032.

B14: cr648 (nucleic acid)
guide: GTTTAAGAGCTAAGCTGGAAACAGCATAGCAACTTTAAATAAGTCTAGTACGTTATCAACTTGAAAAAGTGGCACCGAGTCGGTGCT
modifications: listed as DNA, chemistry not fully specified
Turning to B14, under setting [1], the Mean relative activity was found to be 0.008305.

B15: cr415 (nucleic acid)
guide: GTTTAAGAGCTAAGCTGGAAACAGCATAGCAAGTTTAAATAAGGCTAGTCCCTTATCAACTTGAAATAGTGGCACCGAGTCGGTGCT
modifications: listed as DNA, chemistry not fully specified
B15 came in with a Mean relative activity under setting [1] of 0.007281.

B16: cr455 (nucleic acid)
guide: GTTTAAGAGCTAAGCTGGAAACAGCATAGCAAGTTTAAATAAGGCTAGTCCGTTATCAATTGGAAACAATGGCACCGAGTCGGTGCT
modifications: listed as DNA, chemistry not fully specified
Consider B16, for which the Mean relative activity under setting [2] is listed as 1.031.

B17: cr114 (nucleic acid)
guide: GTTTAAGAGCTAAGCTGGAAACAGCATAGCAAGTTTAAATAATGTTAATCAGTTATCAACTTGAAAAAGTGGCCCCGAGTCGGGGCT
modifications: listed as DNA, chemistry not fully specified
For the molecule B17, the Mean relative activity under setting [1] amounted to 0.008589.

B18: cr436 (nucleic acid)
guide: GTTTAAGAGCTAAGCTGGAAACAGCATAGCAAGGTTAAATAAGGCTAGTCCGTTATCATCTTGAAAAAGAGGCACCGAGTCGGTGCT
modifications: listed as DNA, chemistry not fully specified
The molecule B18 returned a Mean relative activity under setting [1] of 0.008129.

B19: cr137 (nucleic acid)
guide: GTTTAAGAGCTAAGCTGGAAACAGCATAGCAAGTTTAAATAGGGCTAGTCCTTTATCAACTTGCAAAAGTGGCACCGAGTCGGTGCT
modifications: listed as DNA, chemistry not fully specified
B19: the Mean relative activity under setting [1] is given as 0.008516.

B20: cr587 (nucleic acid)
guide: GTTTAAGAGCTAAGCTGGAAACAGCATAGCAAGTTTAAATAAGCCTAGTCCGTTATCAACTTGAAAAAGTGGCACCGAGTCGGTGCT
modifications: listed as DNA, chemistry not fully specified
As to B20, the Mean relative activity under setting [1] came out at 0.009805.

B21: cr328 (nucleic acid)
guide: GTTTAAGAGCTAAGCTGGAAACAGCATAGCAACTTTAAATAAGGCTAGTCCGTTATCAACTTGAAAAAGTGGCCCCGAGTCGGGGCT
modifications: listed as DNA, chemistry not fully specified
On to B21, for which the Mean relative activity under setting [1] is 0.009384.

B22: cr052 (nucleic acid)
guide: ATGTAAGAGCTAAGCTGGAAACAGCATAGCAAGTTTAAATAAGGCTAGTCCGTTATCAACTTGAAAAAGTGGCACCGAGTCGGTGCT
modifications: listed as DNA, chemistry not fully specified
For B22, the Mean relative activity under setting [1] was 0.009238.

B23: cr862 (nucleic acid)
guide: GTTTAAGAGCTAAGCTGGAAACAGCATATCACCTTTAAATAAGGCTAGTCCGTTATCAACTTGAAAAAGTGGCACCGAGTCGGTGCT
modifications: listed as DNA, chemistry not fully specified
In turn, B23 displayed a Mean relative activity under setting [1] of 0.007887.

B24: cr993 (nucleic acid)
guide: GTTTAAGAGCTAAGCTGGAAACAGCATAGCAACTTTAAATAAGGCTAGTCCGTTATCATCTTGAAAAAGAGGCACCGAGTCGGTGCT
modifications: listed as DNA, chemistry not fully specified
With B24, the Mean relative activity under setting [1] is listed as 0.00969.

B25: cr295 (nucleic acid)
guide: GTTTAAGAGCTAAGCTGGAAACAGCATAGCAAGGTTAAATAAGGCTAGTCCGTTATCAACTTGAAAAAGTGGGACCGAGTCGGTCCT
modifications: listed as DNA, chemistry not fully specified
B25 had a Mean relative activity under setting [1] of 0.008268.

B26: cr092 (nucleic acid)
guide: GTGTAGGAGCTAAGCTGGAAACAGCATAGCAAGTTTAAATAAGGCTAGTCCGTTATCAACTTGAAAAAGTGGCACCGAGTCGGTGCT
modifications: listed as DNA, chemistry not fully specified
Molecule B26 showed a Mean relative activity under setting [1] of 0.006875.

B27: cr339 (nucleic acid)
guide: GTTTAAGAGCTAAGCTGGAAACAGCATAGCAAGTTTAAATAACCCTAGTGGGTTATCAACTTGAAAAAGTGGCACCGAGTCGGTGCT
modifications: listed as DNA, chemistry not fully specified
On to B27, for which the Mean relative activity under setting [1] is given as 0.00717.

B28: cr664 (nucleic acid)
guide: GTTTAAGAGCTAAGCTGGAAACAGCATAGCAACCTTAAATAAGGCTAGTCCGTTATCAACTTGAAAAAGTGGCACCGAGTCGGTGCT
modifications: listed as DNA, chemistry not fully specified
B28 had a Mean relative activity under setting [1] of 0.007435.

B29: cr247 (nucleic acid)
guide: GTTTAAGAGCTAAGCTGGAAACAGCATAGCAATTTTAAATAAGGCTAGTCCGTTATCAACTTGAAAAAGTAGCACCGAGTCGGTGCT
modifications: listed as DNA, chemistry not fully specified
For B29, the Mean relative activity under setting [1] stood at 0.007159.

The values above are taken from patent US20220259593A1, “CONTROL OF MAMMALIAN GENE DOSAGE USING CRISPR” (The Regents of the University of California, priority 2019, published 2022).
